Test results from US20110008302A1, “Compositions and methods for immortalizing cells and screening for anti-cancer agents” (priority 2007, published 2011).
Positions count from the first letter of the chain named. In names and notes the source's numbering stands.

B1: Ndy1: JmjC domain-containing histone H3 demethylase, overexpressed from retroviral constructs or immunoprecipitated (protein, UniProt Q6P1G2 1-1309, looked up)
Lysine-specific demethylase 2B: MEAEKDSGRRLRAIDRQRYDENEDLSDVEEIVSVRGFSLEEKLRSQLYQGDFVHAMEGKDFNYEYVQREALRVPLVFRDKDGLGIKMPDPDFTVRDVKLLVGSRRLVDVMDVNTQKGTEMSMSQFVRYYETPEAQRDKLYNVISLEFSHTKLEHLVKRPTVVDLVDWVDNMWPQHLKEKQTEATNALAEMKYPKVKKYCLMSVKGCFTDFHIDFGGTSVWYHVFRGGKIFWLIPPTLHNLALYEEWVLSGKQSDIFLGDRVERCQRIELKQGYTFFIPSGWIHAVYTPVDSLVFGGNILHSFNVPMQLRIYEIEDRTRVQPKFRYPFYYEMCWYVLERYVYCVTQRSYLTQEYQRELMLIDAPRKTSVDGFSSDSWLDMEEESCEQQPQEEEEEEEDKEEEGDGADKTPKPPTDDPTSPTSTPPEDQDSTGKKPKAPAIRFLKRTLSNESEESVKSTSMPTDDPKTPTGSPATEVSTKWTHLTEFELKGLKALVEKLESLPENKKCVPEGIEDPQALLEGVKNVLKEHVDDDPTLAITGVPVVSWPKKTAKNRVVGRPKGKLGPASAVKLAANRTTAGARRRRTRCRKCEACLRTECGECHFCKDMKKFGGPGRMKQSCIMRQCIAPVLPHTAVCLVCGEAGKEDTVEEEEGKFNLMLMECSICNEIIHPGCLKIKESEGVVNDELPNCWECPKCNHAGKTGKQKRGPGFKYASNLPGSLLKEQKMNRDNKEGQEPAKRRSECEEAPRRRSDEHPKKVPADGILRRKSDDVHLRRKRKYEKPQELSGRKRASSLQTSPGSSSHLSPRPPLGSSLSPWWRSSLTYFQQQLKPGKEDKLFRKKRRSWKNAEDRLSLANKPLRRFKQEPEDDLPEAPPKTRESDQSRSSSPTAGPSTEGAEGPEEKKKVKMRRKRRLVNKELSKELSKELNHEIQKTESTLAHESQQPIKSEPESENDEPKRPLSHCERPHRFSKGLNGTPRELRHSLGPGLRSPPRVMSRPPPSASPPKCIQMERHVIRPPPISPPPDSLPLDDGAAHVMHREVWMAVFSYLSHRDLCVCMRVCRTWNRWCCDKRLWTRIDLNRCKSITPLMLSGIIRRQPVSLDLSWTNISKKQLSWLINRLPGLRDLVLSGCSWIAVSALCSSSCPLLRTLDVQWVEGLKDAQMRDLLSPPTDNRPGQMDNRSKLRNIVELRLAGLDITDVSLRLIIRHMPLLSKLQLSYCNHINDQSINLLTAVGTTTRDSLTEVNLSDCNKVTDLCLSFFKRCGNICHIDLRYCKQVTKEGCEQFIAEMSVSVQFGQVEEKLLQKLS
B2: Ndy1 fragment (aa 171-707): bacterially expressed mouse Ndy1 fragment containing the JmjC, CXXC and PHD domains (protein, UniProt Q6P1G2 171-707, looked up, fragment)
chain: MWPQHLKEKQTEATNALAEMKYPKVKKYCLMSVKGCFTDFHIDFGGTSVWYHVFRGGKIFWLIPPTLHNLALYEEWVLSGKQSDIFLGDRVERCQRIELKQGYTFFIPSGWIHAVYTPVDSLVFGGNILHSFNVPMQLRIYEIEDRTRVQPKFRYPFYYEMCWYVLERYVYCVTQRSYLTQEYQRELMLIDAPRKTSVDGFSSDSWLDMEEESCEQQPQEEEEEEEDKEEEGDGADKTPKPPTDDPTSPTSTPPEDQDSTGKKPKAPAIRFLKRTLSNESEESVKSTSMPTDDPKTPTGSPATEVSTKWTHLTEFELKGLKALVEKLESLPENKKCVPEGIEDPQALLEGVKNVLKEHVDDDPTLAITGVPVVSWPKKTAKNRVVGRPKGKLGPASAVKLAANRTTAGARRRRTRCRKCEACLRTECGECHFCKDMKKFGGPGRMKQSCIMRQCIAPVLPHTAVCLVCGEAGKEDTVEEEEGKFNLMLMECSICNEIIHPGCLKIKESEGVVNDELPNCWECPKCNHAGKTGKQKRG
B3: 171-707 Ndy1 fragment containing the Y221A mutation: Ndy1 fragment with Y221A mutation, which abolishes the demethylase activity (protein)
chain: B2 chain with Y51A
modifications: left off: small tags and cut ends

Legend:
bulk histone = experiment: In vitro histone demethylation assay with immunoprecipitated native Ndy1 (Western blot); format: biochemical; settings: mouse and human Ndy1 immunoprecipitated from MEFs and IMR90 cells
MEFs = experiment: Ndy1 overexpression in serially passaged MEFs, real time PCR of p16Ink4a and p19Arf mRNA; format: cell-based, mouse
Experimental: FIG. 14 panel B is a set of bar graphs of MEFs overexpressing Ndy1 that were plated at a concentration of 10^5 cells per 6 cm dish and serially passaged. In passage P5, P10, and P15 total mRNA was isolated and analyzed by real time PCR for the relative mRNA levels of p16^Ink4a and p19^Arf. The graphs show the fold decrease of p16^Ink4a and p19^Arf mRNAs in MEFs that overexpress Ndy1 normalized to control empty-vector transduced cells from 3 independent infections.
RNA was isolated with the RNeasy mini kit (Qiagen #74104). cDNAs of these mRNAs were synthesized with RETROscript (Ambion #AM1710). PCR reactions were carried out in triplicate with iQ SYBRGreen Supermix (Bio-Rad #170-8882) in an Opticon2 continuous fluorescence detector (MJ Research). The following set of primers have been used to amplify the mouse: Ezh2: F-5′-ACTGCTGG CACCGTCTGATG-′3 (SEQ ID NO: 38) and R-5′-TCCTGAGAA ATAATCTCCCCACAG-′3 (SEQ ID NO: 39),
p16^Ink4a: F-5′-GTGTGCATGA CGTGCGGG-′3 (SEQ ID NO: 42) and R-5′-GCAGTTCGA ATCTGCACCGTAG-′3 (SEQ ID NO: 43), p19^Arf: F-5′GCTCTGGCT TTCGTGAACATG-′3 (SEQ ID NO: 44) and R-5′-TCGAATCTG CACCGTAG′TTGAG'3 (SEQ ID NO: 45),
Replicative senescence is characterized by the dramatic upregulation of p16^Ink4a (>100-fold, FIG. 16) and p19^Arf (>10-fold). Since, p16^Ink4a inhibits the cyclin D/CDK4-6 complex that mediates the phosphorylation of Rb at Ser807/811, and Ndy1 promotes the phosphorylation of Rb at this site as shown in Examples herein, whether the phosphorylation of Rb in Ndy1-transduced MEFs can be linked to a defect in the induction of the Ink4a/Arf locus was tested. To address this question, the relative levels of p16^Ink4a and p19^Arf mRNA in passaged MEFs stably expressing Ndy1 were determined in examples herein.

H3K36me2 peptide = experiment: Fluorescence coupled demethylation assay; format: biochemical; settings: for efficiency of demethylation of H3K36me2 peptide: bacterially expressed fragment
Experimental: (§1) For assay of in vitro histone demethylation, cells from a confluent 15 cm dish were harvested and the cell pellet was resuspended in 5 packed cell volumes of Buffer A (10 mM HEPES pH 7.9, 1.5 mM MgCl2, 10 mM KCl, 0.5 mM DTT, and 0.2 mM PMSF) and centrifuged at 1500 rpm for 5 minutes. Buffer A was added up to a final of 3 original packed cell volumes and the suspension was incubated on ice for 10 minutes. Cells were transferred to a Wheaton A Dounce homogenizer and lysed with 10 strokes. Nuclei were pelleted by centrifuging at maximum speed for 5 min in a microcentrifuge. Nuclei were resuspended in Buffer B (20 mM HEPES, pH 7.9, 100 mM KCl, 0.5 mM DTT and 0.2 mM PMSF) and disrupted by sonication. After preclearing with 20 μl protein A-agarose beads, the supernatant was incubated with either myc- or hemagglutinin-specific monoclonal antibody (5 μg/sample) and 20 μl protein A-agarose beads overnight at 4° C., the sample was washed three times with 1 ml Buffer B and the purified immune complex was incubated overnight at 4° C. with myc or HA peptide to release Ndy1/KDM2B from the beads. Demethylation reactions were carried out in 10 mM HEPES pH 7.9, 50 mM NaCl, 1 mM α-ketoglutarate, 2 mM ascorbate, 30-70 μM Fe(NH4)2(SO4)2, 0.25 mg/ml BSA and contained 6 μg of bulk histone per 90 μl reaction. Reactions were incubated at 37° C. for 1-3 hours and analyzed by 18% SDS-PAGE and Western-blotting with histone specific antibodies.
(§2) Fluorescent assays were carried out as previously described (Couture, J. F., et al. (2007) Nat Struct Mol Biol 14, 689-95) under the reaction conditions above. One unit of enzyme activity is determined as amount of Ndy1 that produces 1 μmol of formaldehyde per min, incubated with 340 μM peptide substrate at 37° C. under the above conditions. The sequences of the H3K4(me3) and H3K36(me2) peptides used in the biochemical studies were: ART-K(me3)-QTARKST (SEQ ID NO: 79) and ATGGV-K(me2)-KPHRY (SEQ ID NO: 80) respectively and were synthesized at Tufts University Core facility.
(§3) Using a fluorescence coupled demethylation assay, a bacterially expressed mouse Ndy1 fragment containing the JmjC, CXXC and PHD domains (aa 171-707) was here shown to demethylate both H3K36me2 and H3K4me3 peptides, with high and low efficiencies respectively (FIG. 20 panel B and FIG. 22). Cloning and bacterial expression of Ndy1 fragments was accomplished using fragments 1-701 and 171-701 of mouse Ndy1, which were amplified using specific primers and were cloned directly into pET102/DTOPO vector (Invitrogen) using of the TOPO-cloning methodology. The C-terminally His-tagged fusion proteins were purified from BL21(DE3) cells using Ni2+agarose beads (QIAGEN) and according to the manufacturer instructions. Flow cytometry analysis of histone modifications was determined in HEK293 cells transfected with either pIRES-GFP-empty vector (Stratagene) or the same vector containing the wild type or the H283Y JmjC domain point mutant of Ndy1. After 48 hours, cells were harvested and fixed in 1% paraformaldehyde for 10 min. Cells were washed twice with PBS, and were permeabilized with 0.5% saponin in PBS for 20 min and were blocked with 3% bovine serum albumin (BSA). […] (Alexa Fluor 635, Invitrogen, #A31577) followed by fluorescence-activated cell sorting using a CyAn high performance flow cytometer (Dako Cytomation).

HEK293 cells = experiment: Flow cytometry of global histone modifications in HEK293 cells transfected with Ndy1; format: cell-based, human; settings: HEK293 cells transiently transfected with Ndy1
Excerpt: as §3, with “Ndy1.” for “Ndy1. After 48 hours, cells were harvested and fixed in 1% paraformaldehyde for 10 min. Cells were washed twice with PBS, and were permeabilized with 0.5% saponin in PBS for 20 min and were blocked with 3% bovine serum albumin (BSA).”
To confirm the activity and specificity of the Ndy1 histone demethylase in vivo, flow cytometry was used to quantitatively assess the global levels of histone H3K36me2 and H3K4me3 in HEK293 cells transiently transfected with Ndy1.

H3K4me3 peptide = experiment: Fluorescence coupled demethylation assay; format: biochemical; settings: bacterially expressed fragment
Experimental: as §1, §2, §3

Molecule | H3K4me3 demethylase activity (bulk histone) | H3K36me2 demethylase activity (bulk histone) | attenuation of induction of p16Ink4a (MEFs; passage 5, relative to empty vector transduced MEFs) | reduction of induction of p19Arf (MEFs; passage 10) | attenuation of induction of p16Ink4a (MEFs; passage 10, relative to empty vector transduced MEFs) [%] | reduction of induction of p19Arf (MEFs; passage 15) [%] | attenuation of induction of p16Ink4a (MEFs; passage 15, relative to empty vector transduced MEFs) [%] | specific activity towards the H3K36me2 versus the H3K4me3 peptide (H3K36me2 peptide; Ndy1 fragments expressed in E. coli) | histone H3K4me3 demethylase activity in vivo (HEK293 cells) | histone H3K36me2 demethylase activity in vivo (HEK293 cells) | efficiency of demethylation of H3K36me2 peptide (H3K36me2 peptide) | efficiency of demethylation of H3K4me3 peptide (H3K4me3 peptide)
B1 | weak | strong | about 55% | about 43% | ~62 | ~34 | ~90 | three times higher | weak | strong | – | –
B2 | – | – | – | – | – | – | – | – | – | – | high | low
B3 | – | – | – | – | – | – | – | – | – | – | failed to demethylate | failed to demethylate
